Measured values: patent publication US8367390B2, “Galactanase variants” (Novozymes A/S, priority 2002, dated 2013)

B1: BLGAL: GH Family 53 galactanase from Bacillus licheniformis, SEQ ID NO: 4 (wild type parent) (protein, listed as Bacillus licheniformis)
chain: AHRDSGTAKSGLYVEKVSGLRKDFIKGVDVSSIIALEESGVAFYNESGKKQDIFNTLKEAGVNYVRVRIWNDPYDANGNGYGGGNNDLEKAIQIGKRANANGMKLLADFHYSDFWADPAKQKAPKAWANLNFEDKKTALYQYTKQSLKAMKAAGIDIGMVQVGNETNGGLAGETDWAKMSQLFNAGSQAVRETDSNILVALHFTNPETSGRYAWIAETLHRHHVDYDVFASSYYPFWHGTLKNLTSVLTSVADTYGKKVMVAETSYTYTAEDGDGHGNTAPKNGQTLNNPVTVQGQANAVRDVIQAVSDVGEAGIGVFYWEPAWIPVGPAHRLEKNKALWETYGSGWATSYAAEYDPEDAGKWFGGSAVDNQALFDFKGRPLPSLHVFQYVDTGTPFKN
B2: AAGAL: GH Family 53 galactanase from Aspergillus aculeatus, SEQ ID NO: 3 (wild type parent) (protein, listed as Aspergillus aculeatus)
chain: ALTYRGADISSLLLLEDEGYSYKNLNGQTQALETILADAGINSIRQRVWVNPSDGSYDLDYNLELAKRVKAAGMSLYLDLHLSDTWADPSDQTTPSGWSTTDLGTLKWQLYNYTLEVCNTFAENDIDIEIISIGNEIRAGLLWPLGETSSYSNIGALLHSGAWGVKDSNLATTPKIMIHLDDGWSWDQQNYFYETVLATGELLSTDFDYFGVSYYPFYSASATLASLKTSLANLQSTYDKPVVVVETNWPVSCPNPAYAFPSDLSSIPFSVAGQQEFLEKLAAVVEATTDGLGVYYWEPAWIGNAGLGSSCADNLMVDYTTDEVYESIETLGEL
modifications: mat_peptide (1)..()

Legend:
[1] = Activity on galactobiose (Gal2); type: biochemical; conditions: in 24 hours; buffer, pH and temperature per enzyme
Protocol: (§1) The activity on the galacto-oligosaccharide substrates prepared as described above and on the commercially available galactobiose (Gal2, Megazyme) was studied for the four purified galactanases HIGAL, MTGAL, AAGAL and BLGAL. The buffers and temperatures used were: 25 mM sodium acetate, 0.5 mM CaCl2, 0.005% Triton X-100, pH 6.5 at 37° C. for HIGAL and MTGAL, 50 mM sodium acetate, 1 mM CaCl2, pH 4 at 30° C. for AAGAL and 50 mM Mes, 1 mM CaCl2, pH 6.5 at 30° C. for BLGAL. Enzyme concentrations used were 0.8 μg/ml for HIGAL, 0.2 microgram/ml for MTGAL, and 10 micrograms/ml for AAGAL and BLGAL. With HIGAL and MTGAL substrate concentrations were all 0.25 mg/ml, whereas 0.34 mg/ml Gal2, 0.050 mg/ml Gal3 and 0.067 mg/ml Gal4 were used for AAGAL and BLGAL. Enzyme activity in samples withdrawn after various incubation times was inactivated by heating to 95° C. for 10 min. Compositions of reaction products were analysed using HPAE-PAD (Dionex) applying a PA-100 column and a linear gradient of sodium acetate (0-0.18 M) in 0.15 M NaOH. Response factors of the individual carbohydrates were estimated from reference runs with MeGal3, MeGal4, Gal, Gal2, Gal3 and Gal4. Selected results are shown in Tables 2-8 below (the figures indicating weight percentage of glactooligosaccharides).

[2] = Activity on galactan, products by HPAEC-PAD; type: biochemical; conditions: 30° C.; BLGAL pH 6.5, AAGAL pH 4.0
Protocol: Lupin galactan (Megazyme) was incubated with BLGAL (0.1-10 micrograms/ml) at pH 6.5 (50 mM MES, 1 mM CaCl2) and with AAGAL (0.1-10 μg/ml) at pH 4.0 (50 mM sodium acetate, 1 mM CaCl2) at 30° C. Samples were withdrawn after 45 min to 24 hours and enzyme inactivated by heating to 95° C. for 10 min. Reaction products were analyzed using HPAEC-PAD on a Dionex chromatographic system using a CarboPac PA-100 column and a linear gradient 0 to 0.3 M sodium acetate in 0.15 M NaOH. Purified galacto-oligosaccharides were used to identify products.

[3] = Activity on galactotriose (Gal3); type: biochemical; conditions: up to 24 hours; buffer, pH and temperature per enzyme
Protocol: as §1

[4] = Degradation of MeGal4, products by HPAE-PAD; type: biochemical; conditions: in words; buffer, pH and temperature per enzyme
Protocol: as §1

[5] = type: biochemical
Protocol: as §1

[6] = pH profile of galactanase activity on lupin AZCL-galactan; type: biochemical; conditions: 15 min at 37° C., A590, unit assumed
Protocol: The pH profiles of the purified variants described above were established as follows: Galactanase activity at various pH was measured by mixing 500 μl 4 mg/ml lupin AZCL-galactan (Megazyme, Australia) in water with 500 μl buffer (50 mM sodium acetate, 50 mM potassium dihydrogenphosphate, 50 mM boric acid, 1 mM CaCl2, 0.01% Triton X-100 adjusted to pH 2.5, 3.5, 4.5, 5.5, 6.5, 7.5, 8.5 or 9.5 with HCl/NaOH) and 25 μl purified enzyme diluted to about 0.5-2 μg/ml in water. The mixture was incubated 15 min at 37° C., insoluble material was removed by centrifugation, and absorbance in the supernatant was measured at 590 nm.

Molecule	Activity on Gal2 [1]	Initial products from lupin galactan [2]	Activity on Gal3, products [3]	Products from MeGal4 [4]	Products of Gal4 (galactotetraose) degradation [5]	Galactanase activity at pH 2.5 ([6]; pH 2.5) [%]	Galactanase activity at pH 3.5 ([6]; pH 3.5) [%]	Galactanase activity at pH 4.5 ([6]; pH 4.5) [%]	Galactanase activity at pH 5.5 ([6]; pH 5.5) [%]	Galactanase activity at pH 6.5 ([6]; pH 6.5) [%]	Galactanase activity at pH 7.5 ([6]; pH 7.5) [%]	Galactanase activity at pH 8.5 ([6]; pH 8.5) [%]	Galactanase activity at pH 9.5 ([6]; pH 9.5) [%]
B1	Neither of the enzymes HIGAL, MTGAL, AAGAL or BLGAL had any detectable activity	initial main product is galactotetraose with both smaller and larger oligomers also present	no visible activity on Gal3 after 24 hours	MeGal and Gal3	degrades galactotetraose mainly to galactose and galactotriose								
B2	Neither of the enzymes HIGAL, MTGAL, AAGAL or BLGAL had any detectable activity	initially produces a more homogeneous mixture of galactooligomers	degraded Gal3 to Gal2 and Gal		about equimolar amounts of galactose, galactobiose and galactotriose	73	100	83	47	32	0	2	0
